Tests used:
[1] = biological target: T1, Suc-AAPR-pNA; conditions: scale: relative to the substrate with the highest activity
T1 chain: AAPR

[2] = biological target: T2, Suc-AAPV-pNA; conditions: scale: relative to the substrate with the highest activity
T2 chain: AAPV

[3] = biological target: T3, Suc-AAPI-pNA; conditions: scale: relative to the substrate with the highest activity
T3 chain: AAPI

[4] = biological target: T4, Suc-AAPF-pNA; conditions: scale: relative to the substrate with the highest activity
T4 chain: AAPF

[5] = biological target: T5, Suc-AAPL-pNA; conditions: scale: relative to the substrate with the highest activity
T5 chain: AAPL

[6] = biological target: T6, Suc-AAPD-pNA; conditions: scale: relative to the substrate with the highest activity
T6 chain: AAPD

[7] = biological target: T7, Suc-AAPM-pNA; conditions: scale: relative to the substrate with the highest activity
T7 chain: AAPM

[8] = biological target: T8, Suc-AAPA-pNA; conditions: scale: relative to the substrate with the highest activity
T8 chain: AAPA

[9] = biological target: T9, Suc-AAPK-pNA; conditions: scale: relative to the substrate with the highest activity
T9 chain: AAPK

[10] = biological target: T10, Suc-AAPE-pNA; conditions: for relative activity (initial increase in OD405): scale: relative to the substrate with the highest activity
T10 chain: AAPE

[11] = biological target: type II (60-70 kDa) keratins of the ORS

B1: Subtilisin 309 variant from Bacillus clausii (protein)
chain: AQSVPWGIERVQAPAAHNRGLTGSGVKVAVLDTGISTHPDLRIRGGASFVPGEPSTQDGNGHGTHVAGTIAALDNSIGVLGVAPSEALYAVKVLGASGSGSVSSIAQGLEWAGNNGMHVANLSLGSPSPSATLEQAVNSATSRGVLVVAASGNSGAGSISYPARYANAMAVGATDQNNNRASFSQYGAGLDIVAPGVNILSTWPGSTYASLNGTSMATPHVAGAAALVKQKNPSWSNVQIRNHLKNTATSLGDTWEYGSGLVNAEAATR
B1 gave a relative activity (initial increase in OD405) [1] of 0.0002, a relative activity (initial increase in OD405) [2] of 0.0001 and a relative activity (initial increase in OD405) [3] of 0.0003. It also gave a relative activity (initial increase in OD405) [4] of 1, a relative activity (initial increase in OD405) [5] of 0.17 and a relative activity (initial increase in OD405) [6] of 0.0001. The relative activity (initial increase in OD405) [7] was 0.861, the relative activity (initial increase in OD405) [8] was 0.0566 and the relative activity (initial increase in OD405) [9] was 0.0011. The Glutamyl endopeptidase ratio (GR) [10] was 0.003 and the relative activity (initial increase in OD405) [10] was 0.0025.

B2: Glutamyl endopeptidase II sprE from Streptomyces griseus (protein)
chain: VLGGGAIYGGGSRCSAAFNVTKGGARYFVTAGHCTNISANWSASSGGSVVGVREGTSFPTNDYGIVRYTDGSSPAGTVDLYNGSTQDISSAANAVVGQAIKKSGSTTKVTSGTVTAVNVTVNYGDGPVYNMVRTTACSAGGDSGGAHFAGSVALGIHSGSSGCSGTAGSAIHQPVTEALSAYGVTVY
In the case of B2, the relative activity (initial increase in OD405) [1] is reported as 0.0001, the relative activity (initial increase in OD405) [2] is reported as 0 and the relative activity (initial increase in OD405) [3] is reported as 0. It also gave a relative activity (initial increase in OD405) [4] of 0, a relative activity (initial increase in OD405) [5] of 0 and a relative activity (initial increase in OD405) [6] of 0.158. For the same protein, the relative activity (initial increase in OD405) [7] was 0.0001, the relative activity (initial increase in OD405) [8] was 0 and the relative activity (initial increase in OD405) [9] was 0. It also gave a Glutamyl endopeptidase ratio (GR) [10] of 6 and a relative activity (initial increase in OD405) [10] of 1.

B3: Serine protease bppB from Bacillus pumilus JA16 (protein)
chain: VVIGDDGRTKVTNTRVAPYNSIAYITFGGSSCTGTLIAPNKILTNGHCVYNTATRSYSAKGSVYPGMNDSTAVNGSANMTEFYVPSGYINTGASQYDFAVIKTDTNIGNTVGYRSIRQVTNLTGTTIKISGYPGDKMRSTGKVSQWEMSGPVTREDTNLAYYTIDTFSGNSGSAMLDQNQQIVGVHNAGYSNGTINGGPKATAAFVEFINYAKAQ
Protein B3 has a relative activity (initial increase in OD405) [1] of 0, a relative activity (initial increase in OD405) [2] of 0 and a relative activity (initial increase in OD405) [3] of 0. The relative activity (initial increase in OD405) [4] was 0, the relative activity (initial increase in OD405) [5] was 0.0005 and the relative activity (initial increase in OD405) [6] was 0.0043. It also gave a relative activity (initial increase in OD405) [7] of 0, a relative activity (initial increase in OD405) [8] of 0 and a relative activity (initial increase in OD405) [9] of 0.0003. For the same protein, the Glutamyl endopeptidase ratio (GR) [10] was 234 and the relative activity (initial increase in OD405) [10] was 1.

B4: Trypsin from Fusarium oxysporum (protein)
chain: IVGGTSASAGDFPFIVSISRNGGPWCGGSLLNANTVLTAAHCVSGYAQSGFQIRAGSLSRTSGGITSSLSSVRVHPSYSGNNNDLAILKLSTSIPSGGNIGYARLAASGSDPVAGSSATVAGWGATSEGGSSTPVNLLKVTVPIVSRATCRAQYGTSAITNQMFCAGVSSGGKDSCQGDSGGPIVDSSNTLIGAVSWGNGCARPNYSGVYASVGALRSFIDTYA
B4 showed a relative activity (initial increase in OD405) [1] of 1, a relative activity (initial increase in OD405) [2] of 0 and a relative activity (initial increase in OD405) [3] of 0. The relative activity (initial increase in OD405) [4] was 0.0001, the relative activity (initial increase in OD405) [5] was 0 and the relative activity (initial increase in OD405) [6] was 0. It also gave a relative activity (initial increase in OD405) [7] of 0, a relative activity (initial increase in OD405) [8] of 0 and a relative activity (initial increase in OD405) [9] of 0.84. It also gave a Glutamyl endopeptidase ratio (GR) [10] of less than 0.001 and a relative activity (initial increase in OD405) [10] of 0.0001.

B5: Lysyl endopeptidase from Achromobacter lyticus (protein)
chain: GVSGSCNIDVVCPEGDGRRDIIRAVGAYSKSGTLACTGSLVNNTANDRKMYFLTAHHCGMGTASTAASIVVYWNYQNSTCRAPNTPASGANGDGSMSQTQSGSTVKATYATSDFTLLELNNAANPAFNLFWAGWDRRDQNYPGAIAIHHPNVAEKRISNSTSPTSFVAWGGGAGTTHLNVQWQPSGGVTEPGSSGSPIYSPEKRVLGQLHGGPSSCSATGTNRSDQYGRVFTSWTGGGAAASRLSDWLDPASTGAQFIDGLDSGGGTP
B5 gave a relative activity (initial increase in OD405) [1] of 0.0005, a relative activity (initial increase in OD405) [2] of 0.0007 and a relative activity (initial increase in OD405) [3] of 0.0017. It also gave a relative activity (initial increase in OD405) [4] of 0.0041, a relative activity (initial increase in OD405) [5] of 0.0019 and a relative activity (initial increase in OD405) [6] of 0.0006. It also gave a relative activity (initial increase in OD405) [7] of 0, a relative activity (initial increase in OD405) [8] of 0.0005 and a relative activity (initial increase in OD405) [9] of 1. The Glutamyl endopeptidase ratio (GR) [10] was less than 0.001 and the relative activity (initial increase in OD405) [10] was 0.

B6: Subtilisin Carlsberg from Bacillus licheniformis (protein)
chain: AQTVPYGIPLIKADKVQAQGFKGANVKVAVLDTGIQASHPDLNVVGGASFVAGEAYNTDGNGHGTHVAGTVAALDNTTGVLGVAPSVSLYAVKVLNSSGSGSYSGIVSGIEWATTNGMDVINMSLGGASGSTAMKQAVDNAYARGVVVVAAAGNSGSSGNTNTIGYPAKYDSVIAVGAVDSNSNRASFSSVGAELEVMAPGAGVYSTYPTNTYATLNGTSMASPHVAGAAALILSKHPNLSASQVRNRLSSTATYLGSSFYYGKGLINVEAAAQ
B6 gave a relative activity (initial increase in OD405) [1] of 0.019, a relative activity (initial increase in OD405) [2] of 0.0007 and a relative activity (initial increase in OD405) [3] of 0.0005. For the same protein, the relative activity (initial increase in OD405) [4] was 1, the relative activity (initial increase in OD405) [5] was 0.807 and the relative activity (initial increase in OD405) [6] was 0.0008. The relative activity (initial increase in OD405) [7] was 0.282, the relative activity (initial increase in OD405) [8] was 0.0222 and the relative activity (initial increase in OD405) [9] was 0.0155. For the same protein, the Glutamyl endopeptidase ratio (GR) [10] was 0.003 and the relative activity (initial increase in OD405) [10] was 0.0033.

B7: Glutamyl endopeptidase blaSE from Bacillus licheniformis (protein)
chain: SVIGSDDRTRVTNTTAYPYRAIVHISSSIGSCTGWMIGPKTVATAGHCIYDTSSGSFAGTATVSPGRNGTSYPYGSVKSTRYFIPSGWRSGNTNYDYGAIELSEPIGNTVGYFGYSYTTSSLVGTTVTISGYPGDKTAGTQWQHSGPIAISETYKLQYAMDTYGGQSGSPVFEQSSSRTNCSGPCSLAVHTNGVYGGSSYNRGTRITKEVFDNLTNWKNSAQ
Protein B7 has a relative activity (initial increase in OD405) [1] of 0.0001, a relative activity (initial increase in OD405) [2] of 0.0001 and a relative activity (initial increase in OD405) [3] of 0. For the same protein, the relative activity (initial increase in OD405) [4] was 0.0032, the relative activity (initial increase in OD405) [5] was 0.0027 and the relative activity (initial increase in OD405) [6] was 0.002. For the same protein, the relative activity (initial increase in OD405) [7] was 0.0008, the relative activity (initial increase in OD405) [8] was 0.0001 and the relative activity (initial increase in OD405) [9] was 0.0001. For the same protein, the Glutamyl endopeptidase ratio (GR) [10] was 309, the relative activity (initial increase in OD405) [10] was 1 and the “hydrolysis of ORS tissue protein, SDS-PAGE with Coomassie Blue” value [11] was 5 ppm HZ-2 fully degraded type I and type II during the experiment.

B8: Serine protease from Nocardiopsis sp NRRL 18262 (protein)
chain: ADIIGGLAYTMGGRCSVGFAATNAAGQPGFVTAGHCGRVGTQVTIGNGRGVFEQSVFPGNDAAFVRGTSNFTLTNLVSRYNTGGYATVAGHNQAPIGSSVCRSGSTTGWHCGTIQARGQSVSYPEGTVTNMTRTTVCAEPGDSGGSYISGTQAQGVTSGGSGNCRTGGTTFYQEVTPMVNSWGVRLRT
B8 gave a relative activity (initial increase in OD405) [1] of 0.172, a relative activity (initial increase in OD405) [2] of 0.0121 and a relative activity (initial increase in OD405) [3] of 0.0004. The relative activity (initial increase in OD405) [4] was 1, the relative activity (initial increase in OD405) [5] was 0.185 and the relative activity (initial increase in OD405) [6] was 0.0028. For the same protein, the relative activity (initial increase in OD405) [7] was 0.0003, the relative activity (initial increase in OD405) [8] was 0.0001 and the relative activity (initial increase in OD405) [9] was 0.0778. The Glutamyl endopeptidase ratio (GR) [10] was less than 0.001 and the relative activity (initial increase in OD405) [10] was 0.0004.

B9: Thermostable alkaline protease BH0855 from Bacillus halodurans (protein)
chain: QTVPWGISFINTQQAHNRGIFGNGARVAVLDTGIASHPDLRIAGGASFISSEPSYHDNNGHGTHVAGTIAALNNSIGVLGVAPSADLYAVKVLDRNGSGSLASVAQGIEWAINNNMHIINMSLGSTSGSSTLELAVNRANNAGILLVGAAGNTGRQGVNYPARYSGVMAVAAVDQNGQRASFSTYGPEIEISAPGVNVNSTYTGNRYVSLSGTSMATPHVAGVAALVKSRYPSYTNNQIRQRINQTATYLGSPSLYGNGLVHAGRATQ
B9 gave a relative activity (initial increase in OD405) [1] of 0.0069, a relative activity (initial increase in OD405) [2] of 0.0008 and a relative activity (initial increase in OD405) [3] of 0.0005. The relative activity (initial increase in OD405) [4] was 0.59, the relative activity (initial increase in OD405) [5] was 1 and the relative activity (initial increase in OD405) [6] was 0.0053. For the same protein, the relative activity (initial increase in OD405) [7] was 0.85, the relative activity (initial increase in OD405) [8] was 0.088 and the relative activity (initial increase in OD405) [9] was 0.0038. It also gave a Glutamyl endopeptidase ratio (GR) [10] of 0.008 and a relative activity (initial increase in OD405) [10] of 0.0083.

— patent US20230240966
